Among the data in patent publication US20140154817A1 (WALTER AND ELIZA HALL INSTITUTE OF MEDICAL RESEARCH, published 2014) are Kd values, retold here.

The target of test [1] is T1, Human IGF-I (human, UniProt P05019 49-118).
T1 construct: mature
Description: ITC, 25 °C, IGF-I titrated into IR485 pre-mixed with 10-fold IR αCT peptide. Here is the method:
(§1) ITC experiments were performed using a VP-ITC isothermal titration calorimeter (MicroCal Inc., USA) with the calorimeter cell held at 25° C. All samples were degassed prior to injection or placement into the cell, and the instrument was temperature equilibrated prior to the start of the injections. In all experiments the volume of sample placed in the cell was 1.4 ml and the titrant was injected in 7 μl volumes over 14 s at 3 min intervals, with the total number of injections being 40. The sample contents were stirred at a speed of 310 rpm over the duration of the titration. […] Data were analyzed using the instrument's software incorporated within the Origin 7 software (OriginLab, USA) and in all cases fitted as a single-site interaction using the methodologies outlined in the instrument's manual.
(In general: ITC needs no label: the signal is the heat of the interaction.)

The target in test [2] is T2, Zinc-free porcine insulin (porcine, UniProt P01315 88-108; P01315 25-54).
T2 construct: mature; Made zinc-free by dialysis against 0.1% acetic acid and lyophilisation; also called ZFP-insulin
Description: ITC, 25 °C, hormone titrated into IR485 pre-mixed with 10-fold IR αCT peptide. Here is the method: as §1

T2 sequence (P01315 88-108 limits assumed, chain 1 of 2): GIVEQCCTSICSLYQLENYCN
T2 sequence (P01315 25-54 limits assumed, chain 2 of 2): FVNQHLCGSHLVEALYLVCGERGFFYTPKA

B1: IR485 pre-complexed with a 10-fold molar ratio of IR classical αCT peptide (other)
chain: HLYPGEVCPGMDIRNNLTRLHELENCSVIEGHLQILLMFKTRPEDFRDLSFPKLIMITDYLLLFRVYGLESLKDLFPNLTVIRGSRLFFNYALVIFEMVHLKELGLYNLMNITRGSVRIEKNNELCYLATIDWSRILDSVEDNHIVLNKDDNEECGDICPGTAKGKTNCPATVINGQFVERCWTHSHCQKVCPTICKSHGCTAEGLCCHSECLGNCSQPDDPTKCVACRNFYLDGRCVETCPPPYYHFQDWRCVNFSFCQDLHHKCKNSRRQGCHQYVIHNNKCIPECPSGYTMNSSNLLCTPCLGPCPKVCHLLEGEKTIDSVTSAQELRGCTVINGSLIINIRGGNNLAAELEANLGLIEEISGYLKIRRSYALVSLSFFRKLRLIRGETLEIGNYSFYALDNQNLRQLWDWSKHNLTTTQGKLFFHYNPKLCLSEIHKMEEVSGTKGRQERNDIALKTNGDKASCENELLKFSYIRTSFDKISDDDDKEQKLISEEDLN
peptide: TFEDYLHNVVFVPRPS
notes: Non-covalent receptor fragment and peptide mixture in the ITC cell; also called IR485 + (10 × IR-αCT)
Regarding B1, the figures for the Kd in test [1] and in test [2] were 490 nM and 17 nM, respectively.
